± gives the uncertainty stated by the source.
Experiment: self-splicing fitness, log relative to wild type (ln ratio); higher = more splicing; Tetrahymena group I intron in knt gene, E. coli kanamycin selection, DiMSum; sequences stand for … in CUCUCU…GGAGGGAAAAGUUAUCAGGCAUGCACCUGGUAGCUAGUCUUUAAACCAAUAGAUUGCAUCGGUUUAAAAGGCAAGACCGUCAAAUUGCGGGAAAGGGGUCAACAGCCGUUCAGUACCAAGUCUCAGGGGAAACUUUGAGAUGGCCUUGCAAAGGGUAUGGUAAUAAGCUGACGGACAUGGUCCUAACCACGCAGCCAAGUCCUAAGUCAACAGAUCUUCUGUUGAUAUGGAUGCAGUUCACAGACUAAAUGUCGGUCGGGGAAGAUGUAUUCUUCUCAUAAGAUAUAGUCGGACCUCUCCUUAAUGGGAGCUAGCGGAUGAAGUGAUGCAACACUGGAGCCGCUGGGAACUAAUUUGUAUGCGAAAGUAUAUUGAUUAGUUUUGGAGUACUCGUGGUCG
Procedure, shortened: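 DiMSum derived fitness as the error-weighted combination of fold changes across replicates, kanamycin versus no kanamycin, normalised to wild type. E. coli BL21(DE3) held the library, which randomised all eight P1ex-region intron nucleotides within the knt kanamycin-resistance gene on pET-22b(+). Six replicate transformations grew overnight at 37°C or 30°C on LB agar with or without 25 μg/mL kanamycin, also containing 100 μg/mL carbenicillin, 50 μM IPTG and 0.2% rhamnose, and pooled colonies were amplicon-sequenced on an Illumina HiSeq 2500.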

| Sequence | self-splicing fitness (ln) (30 °C) | self-splicing fitness (ln) (37 °C) |
| --- | --- | --- |
| GUCGAGCAAUAUUACGAUUC | -1.64 ± 0.24 | -0.941 ± 0.26 |
| GUCGAGCAAUAUUACGAUUU | -0.559 ± 0.2 | -0.273 ± 0.19 |
| GUCGAGCAAUAUUACGCAUA | -2.14 ± 0.18 | -1.6 ± 0.16 |
| GUCGAGCAAUAUUACGCGCU | -2.6 ± 0.3 | -1.17 ± 0.32 |
| GUCGAGCAAUAUUACGCGGA | -3.08 ± 0.29 | -1.25 ± 0.19 |
| GUCGAGCAAUAUUACGGAGG | -3.76 ± 0.39 | -2.17 ± 0.23 |
| GUCGAGCAAUAUUACGGAUA | – | -1.25 ± 0.27 |
| GUCGAGCAAUAUUACGGUAG | -2.02 ± 0.11 | -2.54 ± 0.25 |
| GUCGAGCAAUAUUACGGUCA | -1.37 ± 0.26 | -0.499 ± 0.24 |
| GUCGAGCAAUAUUACGUCAU | -1.8 ± 0.12 | -1.13 ± 0.1 |
| GUCGAGCAAUAUUACGUCUC | -1.76 ± 0.42 | -0.346 ± 0.27 |
| GUCGAGCAAUAUUACGUGAA | -1.6 ± 0.12 | -1.86 ± 0.17 |
| GUCGAGCAAUAUUACGUUAU | -0.538 ± 0.12 | -2.13 ± 0.21 |
| GUCGAGCAAUAUUACGUUCU | -1.32 ± 0.15 | 0.217 ± 0.13 |
| GUCGAGCAAUAUUACGUUGC | -2.19 ± 0.2 | -2.25 ± 0.41 |
| GUCUAGCAAUAUUACGAAGU | -1.23 ± 0.19 | -0.107 ± 0.14 |
| GUCUAGCAAUAUUACGAAUC | -1.33 ± 0.19 | 1.43 ± 0.2 |
| GUCUAGCAAUAUUACGACCG | -1.42 ± 0.4 | -2.17 ± 0.33 |
| GUCUAGCAAUAUUACGAGCG | -2.05 ± 0.14 | -0.599 ± 0.16 |
| GUCUAGCAAUAUUACGCAAA | -1.12 ± 0.13 | -0.541 ± 0.12 |
| GUCUAGCAAUAUUACGCAAU | -0.524 ± 0.082 | -0.156 ± 0.082 |
| GUCUAGCAAUAUUACGCACA | -0.72 ± 0.12 | -0.113 ± 0.14 |
| GUCUAGCAAUAUUACGCACC | -1.81 ± 0.11 | -0.328 ± 0.14 |
| GUCUAGCAAUAUUACGCAGA | – | -2.48 ± 0.31 |
| GUCUAGCAAUAUUACGCCGC | -3.25 ± 0.38 | – |
| GUCUAGCAAUAUUACGCCUA | -0.955 ± 0.31 | -0.323 ± 0.27 |

| Sequence | self-splicing fitness (ln) (30 °C) | self-splicing fitness (ln) (37 °C) |
| --- | --- | --- |
| GUCUAGCAAUAUUACGCGAA | -1.36 ± 0.23 | -0.134 ± 0.19 |
| GUCUAGCAAUAUUACGCGAU | -1.94 ± 0.21 | -2.29 ± 0.23 |
| GUCUAGCAAUAUUACGCGGU | -1.78 ± 0.26 | -1.04 ± 0.38 |
| GUCUAGCAAUAUUACGCUCG | -0.688 ± 0.23 | -0.634 ± 0.27 |
| GUCUAGCAAUAUUACGCUGU | -0.966 ± 0.09 | -0.224 ± 0.094 |
| GUCUAGCAAUAUUACGGCCG | – | -1.78 ± 0.35 |
| GUCUAGCAAUAUUACGGCGC | -0.167 ± 0.1 | 0.985 ± 0.12 |
| GUCUAGCAAUAUUACGGCUC | -0.737 ± 0.086 | 0.57 ± 0.12 |
| GUCUAGCAAUAUUACGGUCG | -1.06 ± 0.089 | -0.996 ± 0.11 |
| GUCUAGCAAUAUUACGGUGA | -2.81 ± 0.25 | -0.385 ± 0.21 |
| GUCUAGCAAUAUUACGUCGC | -0.459 ± 0.2 | 0.215 ± 0.19 |
| GUCUAGCAAUAUUACGUGCU | -3.08 ± 0.23 | -1.87 ± 0.39 |
| GUCUAGCAAUAUUACGUUCC | -1.14 ± 0.16 | -0.649 ± 0.2 |
| GUCUAGCAAUAUUACGUUUG | -2.11 ± 0.088 | -1.62 ± 0.11 |
| GUGAAGCAAUAUUACGAACU | -2.15 ± 0.1 | -0.516 ± 0.095 |
| GUGAAGCAAUAUUACGACCC | -1.04 ± 0.43 | 0.469 ± 0.33 |
| GUGAAGCAAUAUUACGACCG | -1.63 ± 0.23 | 0.706 ± 0.28 |
| GUGAAGCAAUAUUACGCCAA | -0.702 ± 0.13 | -1.88 ± 0.16 |
| GUGAAGCAAUAUUACGCCGU | -1.23 ± 0.13 | -0.0879 ± 0.21 |
| GUGAAGCAAUAUUACGCGAC | -0.927 ± 0.21 | -0.922 ± 0.26 |
| GUGAAGCAAUAUUACGGACG | 0.234 ± 0.081 | 0.144 ± 0.092 |
| GUGAAGCAAUAUUACGGACU | -0.0214 ± 0.15 | -0.194 ± 0.19 |
| GUGAAGCAAUAUUACGGGAA | -2.11 ± 0.12 | -0.793 ± 0.11 |
| GUGAAGCAAUAUUACGGGCA | -0.763 ± 0.064 | -0.106 ± 0.083 |
| GUGAAGCAAUAUUACGGUGG | -1.97 ± 0.098 | -1.78 ± 0.16 |
| GUGAAGCAAUAUUACGGUGU | -1.8 ± 0.063 | -0.777 ± 0.082 |

| Sequence | self-splicing fitness (ln) (30 °C) | self-splicing fitness (ln) (37 °C) |
| --- | --- | --- |
| GUGAAGCAAUAUUACGGUUU | -2.86 ± 0.084 | -0.906 ± 0.11 |
| GUGAAGCAAUAUUACGUACC | -1.07 ± 0.2 | – |
| GUGAAGCAAUAUUACGUAGC | -3.31 ± 0.15 | -1.84 ± 0.18 |
| GUGAAGCAAUAUUACGUCGA | -0.469 ± 0.077 | 0.751 ± 0.12 |
| GUGAAGCAAUAUUACGUCUC | -0.941 ± 0.11 | -0.553 ± 0.12 |
| GUGAAGCAAUAUUACGUGUA | -1.11 ± 0.069 | -0.878 ± 0.087 |
| GUGAAGCAAUAUUACGUUCC | -1.67 ± 0.17 | -1.16 ± 0.2 |
| GUGAAGCAAUAUUACGUUUC | -3.08 ± 0.17 | -2.53 ± 0.34 |
| GUGCAGCAAUAUUACGAAGG | -2.59 ± 0.19 | -1.53 ± 0.23 |
| GUGCAGCAAUAUUACGACGU | -0.779 ± 0.11 | 0.0794 ± 0.13 |
| GUGCAGCAAUAUUACGAGCA | -3.43 ± 0.31 | -1.18 ± 0.15 |
| GUGCAGCAAUAUUACGAUAC | -1.58 ± 0.2 | -0.0479 ± 0.17 |
| GUGCAGCAAUAUUACGCAGU | -3.58 ± 0.27 | -2.4 ± 0.28 |
| GUGCAGCAAUAUUACGCAUA | -1.7 ± 0.18 | -0.534 ± 0.14 |
| GUGCAGCAAUAUUACGCUUA | -0.938 ± 0.092 | 0.781 ± 0.15 |
| GUGCAGCAAUAUUACGCUUG | -3.09 ± 0.21 | -2.02 ± 0.27 |
| GUGCAGCAAUAUUACGGACA | -1.58 ± 0.14 | -0.853 ± 0.16 |
| GUGCAGCAAUAUUACGGAGA | – | -1.86 ± 0.38 |
| GUGCAGCAAUAUUACGGAGC | -1.85 ± 0.2 | -1.97 ± 0.19 |
| GUGCAGCAAUAUUACGGCAA | 0.24 ± 0.12 | 0.291 ± 0.15 |
| GUGCAGCAAUAUUACGGGGA | -4.16 ± 0.3 | -2.8 ± 0.23 |
| GUGCAGCAAUAUUACGGUAU | -2.16 ± 0.12 | -1.53 ± 0.15 |
| GUGCAGCAAUAUUACGGUCU | -0.887 ± 0.081 | 0.217 ± 0.093 |
| GUGCAGCAAUAUUACGGUUC | -0.353 ± 0.075 | -0.684 ± 0.11 |
| GUGCAGCAAUAUUACGUAGC | -1.44 ± 0.17 | -0.976 ± 0.16 |
| GUGCAGCAAUAUUACGUAGU | -1.37 ± 0.083 | -0.784 ± 0.12 |

Source: the supplement of paper PMC7877785
